Patent publication US20100183614A1 (COVALENT BIOSCIENCE, published 2010)

Target: gp120 of HIV strain 97ZA009 (clade C, R5) (HIV-1 strain 97ZA009)
Test: cell-based or functional assay

B1: scFv JL427 (scFv)
scFv: QSVLTQPPSVSGAPGQRVTISCSGSSSNFGLNYVYWYQHFPGTAPKLLIYRNDQRPLGVPARFSGSKSGTSASLAISGLRSEDEADYYCQSYDNSLSGWVFGGGTQLTVLGSSGGGGSGGGGSGGSALQVQLQQSGGGLVQPGRSLRLSCAASGFTFSSYGMHWVRQAPGKGLEWVSYIGRSGSHTNYADSVKGRFTISRDNSKNTLYLQINSLRAEDTAVYYCARGLPNYGMDIWGQGTTVTVSSGSASAPTLFPAAAHHHHHHGAAEQKLISEEDLNGAA
B1 was tested, and the “HIV neutralization IC50, ng/mL (97ZA009, PBMC)” value was 300 ng/mL.
